Results as given in patent US20090304687A1, “METHODS OF USING CD40 BINDING AGENTS” (Seattle Genetics , Inc., priority 2005, published 2009).
“Also recorded” adds a separate entry of the source.

Legend:
[1] = system: Ramos cells; experiment: In vitro drug combinations with SGN-40, 3H-thymidine proliferation, Combination Index; type: cell-based
Description: Cells were treated for 72 hours, then labeled with ^3H-thymidine for 4 hours to measure proliferation rates. Dose response curves of drugs alone and in combination with the humanized CD40 antibody were reduced in Excel, and Combination Indices (CI) determined using the Calcusyn analysis package (Biosoft). […] CI values equal to 1.0 indicate an additive integration. For these studies, n=3 unless otherwise indicated.

[2] = system: IM-9 cells; experiment: IM-9 disseminated xenograft model, survival; type: in vivo, SCID mice; conditions: data not shown
Description: Briefly IM-9 cells (1×10^6 per mouse) were introduced intravenously into SCID mice in a disseminated xenograft model. Animals were treated 3 days post tumor cell injection with either SGN-40(4.0 mg/kg, q2d x9, ip) or prednisone (0.15 mg/kg, qld x5, po) alone, or in combination. Survival data was plotted using a Kaplan-Meier curve (data not shown).

[3] = system: Ramos cells; experiment: In vitro signaling in Ramos cells, western blot; type: cell-based; conditions: 2% serum, antibody cross-linked with anti-human IgG, 15 min
Description: Humanized anti-CD40 antibody (Hu sgn-0; also referred to as SGN-40) binding to CD40^+ NHL cells activates signaling through the ERK1/2 MAP Kinase, p38 MAP Kinase, and NFkB pathways. Ramos cells (cultured in 2% serum) were stimulated with the humanized CD40 antibody cross-linked (XL) with anti-human IgG for 15 min. Activation of signaling was detected by western blot analysis with antibodies recognizing phosphorylation of ERK1/2 (Thr202/Tyr204), p38 (ThrlSO/Tyr182), and AKT (Ser473). NFkB activation was detected by measuring the degradation of IkB-a protein.

[4] = system: Ramos cells; experiment: Bid upregulation and PARP/caspase-3 cleavage in Ramos cells, western blot; type: cell-based
Description: In a further study, Ramos cells (2% FBS) were treated with cross-linked humanized CD40 antibody or control hIgG over a 72 hr time course ([…]). Normalized protein extracts were analyzed by western blotting analysis for the pro-apoptotic Bcl-2 family member Bid. […] Referring to FIG. 3B, degradation of the caspase-3/7 substrate poly(ADP-ribose) polymerase (cleaved-PARP) was monitored over time by western blotting with an antibody recognizing PARP cleaved at Asp214. Consistent with the apoptosis-inducing activity of the humanized CD40 antibody, cleavage of caspase-3 and its downstream substrate poly (ADP-ribose) polymerase was detected in NHL cell lines. Antibody-mediated signaling was qualitatively similar to that mediated by trimeric recombinant humanized CD40 ligand (rhCD40L) (data not shown). However, the overall magnitude of signaling was lower with the humanized CD40 antibody compared to rhCD40L, consistent with the partial agonistic properties of SGN-40.

[5] = system: Ramos tumor cells; experiment: SCID mouse lymphoma xenograft model, subcutaneous Ramos tumor growth; type: in vivo, SCID mice; conditions: 4 mg/kg/dose i.p. 3 times per week, start 13 days after implant, 14-day study period
Description: The anti-tumor activity of the humanized CD40 antibody was assayed in a SCID mouse lymphoma xenograft model. Five million Ramos tumor cells were injected subcutaneously into SCID mice (10/group) thirteen days prior to starting drug treatment. Murine CD40 antibody or the humanized S2C6 was given intra-peritoneally 3 times per week (4 mg/kg/dose) with 8 or 5 doses administered. Mice were examined for tumor growth, and tumor volume was measured weekly during the 14-day study period. The results in FIG. 4 show a nearly 9-fold increase in the growth of tumors in control mice, whereas over the same time period, tumor growth in mice treated with either murine CD40 antibody or humanized S2C6 was negligible.

[6] = target: CD40 immobilized on microassay plates (UniProt P25942 21-193, limits assumed); experiment: serially diluted antibody on CD40 immobilized on microassay plates
Description: (§1) Antibodies constructed using these variant light and heavy chain variable domains were analyzed for binding activity. Each antibody was diluted to equivalent concentrations, and then serially diluted. The diluted antibodies were assayed for binding to CD40 immobilized on microassay plates.

[7] = Pharmacokinetics of SGN-40 in patients with multiple myeloma; type: in vivo, human; conditions: for AUC0-50: Days 0 to 50, 1 compartment model fit; for T ½: after the last infusion, 1 compartment model fit; for Day 36 Cmin: trough 7 days after last dose; for Day 29 Cmax: serum, after last dose, mean ± SD
Description: The humanized CD40 antibody, SGN-40, was administered twice during the first week and once a week […] for the next 4 weeks to patients with multiple myeloma. […] The peak serum concentration (Cmax) of SGN-40 observed following the last dose on Day 29 and the subsequent trough levels 7 days later on Day 36 are shown for each cohort in Table 6. […] (n/a means not applicable.) […] Data are presented as the mean±standard deviation (N>3) with the exception of Cohort I Day 36 Cmin (N=2), and Cohort II, T1/2 and AUC0-50 (N-1). The patients maintained a plasma SGN-40 concentration of at least about 10 micrograms/ml.

[8] = system: Ramos tumor cells; experiment: SCID mouse lymphoma xenograft model, intravenous Ramos cells, survival; type: in vivo; conditions: 4 mg/kg/dose i.p. two times per week, five doses, 10 mice/group
Description: The efficacy of the humanized CD40 antibody on survival of tumor-bearing mice was assayed in a SCID mouse lymphoma xenograft model. SCID mice (10/group) were inoculated intravenously with one million Ramos tumor cells three days prior to antibody treatment. Mice were treated with murine or humanized CD40 antibody, or an Ig control, administered intraperitoneally two times per week (4 mg/kg/dose) for a total of five doses. The mouse cages were examined daily for mortality.

[9] = Phase I escalated dosing study in multiple myeloma patients, adverse events; type: in vivo, human
Description: An open-label, multi-dose, single arm, Phase I protocol initiated at five clinical sites. Initially, enrolled patients, diagnosed with multiple myeloma, received weekly intravenous infusions of a humanized CD40 antibody (hu sgn-0) with a cohort-specific dose level of 0.5, 1, 2 and 4 mg/kg/wk. […] Cohort specific doses of 3, 4, 6 and 8 mg/kg/week were used. The patient eligibility criteria included: patients must have failed at least two prior systemic therapies; at least four weeks since chemotherapy; patients who experience a minimal response (MR) or greater are eligible for a second cycle of therapy.
Patients were monitored for adverse events. […] The drug-loading period reduced the first-dose cytokine release syndrome.

[10] = system: human peripheral B cells; conditions: Paulie et al., 1989; cited from earlier work
[11] = U.S. Pat. No. 6,838,261; cited from earlier work
[12] = target: CD40 and CD40L (Homo sapiens, UniProt P25942); conditions: literature; cited from earlier work
[13] = target: CD40 (Homo sapiens, UniProt P25942); experiment: Binding of variant antibodies to CD40 immobilized on microassay plates; design: Binding Data 1 / Binding Data 2 / Binding Data 3: unit not given here
Description: as §1, with “plates. Affinity binding data for the variant antibodies are shown below in Table 3.” for “plates.”

Chain of CD40 (P25942 21-277): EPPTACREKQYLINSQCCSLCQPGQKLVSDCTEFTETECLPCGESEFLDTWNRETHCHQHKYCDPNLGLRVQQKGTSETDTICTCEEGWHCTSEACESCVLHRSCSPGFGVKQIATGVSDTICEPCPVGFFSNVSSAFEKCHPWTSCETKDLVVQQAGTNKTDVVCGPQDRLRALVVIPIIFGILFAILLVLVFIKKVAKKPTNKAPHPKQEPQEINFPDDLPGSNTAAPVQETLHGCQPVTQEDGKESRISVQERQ
Chain of CD40 immobilized on microassay plates (P25942 21-193 limits assumed): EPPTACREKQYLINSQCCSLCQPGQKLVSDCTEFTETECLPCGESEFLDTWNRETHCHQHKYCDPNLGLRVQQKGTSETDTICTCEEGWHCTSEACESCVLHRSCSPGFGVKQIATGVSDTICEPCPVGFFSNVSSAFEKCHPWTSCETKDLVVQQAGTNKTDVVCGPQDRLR
Chain of CD40 and CD40L (P25942 21-277): as the sequence (P25942 21-277) above

B1: hu sgn-0 (antibody, V domains shown)
VH: EVQLVESGGGLVQPGGSLRLSCAASGYSFTGYYIHWVRQAPGKGLEWVARVIPNNGGTSYNQKFKGRFTISRDNSKNTLYLQMNSLRAEDTAVYYCAREGIYWWGQGTLVTVS
VL: DIQMTQSPSSLSASVGDRVTITCRSSQSLVHSNGNTFLHWYQQKPGKAPKLLIYTVSNRFSGVPSRFSGSGSGTDFTLTISSLQPEDFATYYCSQTTHVPWTFGQGTKVEIKR
notes: also called SGN-40; Template
effect on activity of chemotherapeutic agents [1]: enhances the activity of several chemotherapeutic agents | survival ([2]; SGN-40 4.0 mg/kg q2d x9 ip, 3 days post tumor cell injection): similarly effective in promoting survival | efficacy with or without prednisone ([2]; prednisone 0.15 mg/kg qld x5 po): essentially the same in the presence or absence of prednisone | AKT signaling [3]: modestly elevated | cleavage of caspase-3 and poly (ADP-ribose) polymerase ([4]; NHL cell lines, western blot): detected | Bid protein ([4]; Ramos cells 2% FBS, cross-linked antibody, 72 hr time course, 1.0 mg/ml mAb): upregulated Bid | overall magnitude of signaling compared to rhCD40L ([4]; data not shown): lower | tumor growth [5]: negligible | Binding Data 1 [6]: 75.3 | Binding Data 2 [6]: 75.3 | AUC0-50 ([7]; Cohort I (1,1,2,3,3,3)): 653.93 ± 154.65 µg·days/mL | T ½ ([7]; Cohort I (1,1,2,3,3,3)): 64.1 ± 25.9 h | Day 36 Cmin ([7]; Cohort I (1,1,2,3,3,3), N=2): 9.94 µg/mL | Day 29 Cmax ([7]; Cohort I (Day 1/4/8/15/22/29: 1,1,2,3,3,3)): 45.40 ± 14.31 µg/mL | AUC0-50 ([7]; Cohort II (1,1,2,4,4,4)): 2086.02 µg·days/mL | T ½ ([7]; Cohort II (1,1,2,4,4,4)): 111 h | Day 36 Cmin ([7]; Cohort II (1,1,2,4,4,4)): 69.93 ± 14.08 µg/mL | Day 29 Cmax ([7]; Cohort II (Day 1/4/8/15/22/29: 1,1,2,4,4,4)): 143.00 ± 27.78 µg/mL | AUC0-50 ([7]; Cohort III (1,1,2,4,6,6)): 1988.88 ± 439.74 µg·days/mL | T ½ ([7]; Cohort III (1,1,2,4,6,6)): 92.4 ± 32.9 h | Day 36 Cmin ([7]; Cohort III (1,1,2,4,6,6)): 41.57 ± 19.22 µg/mL | Day 29 Cmax ([7]; Cohort III (Day 1/4/8/15/22/29: 1,1,2,4,6,6)): 149.25 ± 29.34 µg/mL | AUC0-50 ([7]; Cohort IV (1,1,2,4,6,8)): 3441.73 ± 1382.79 µg·days/mL | T ½ ([7]; Cohort IV (1,1,2,4,6,8)): 129 ± 44.2 h | Day 36 Cmin ([7]; Cohort IV (1,1,2,4,6,8)): 112.84 ± 50.40 µg/mL | Day 29 Cmax ([7]; Cohort IV (Day 1/4/8/15/22/29: 1,1,2,4,6,8)): 244.25 ± 96.00 µg/mL | plasma SGN-40 concentration maintained ([7]; multiple myeloma patients): at least 10 micrograms/ml | mice alive 90 days after tumor implant [8]: all ten | symptoms of first dose-associated cytokine release after amended protocol (intra-patient dose escalation) ([9]; drug-loading period, Table 5 schema): markedly reduced | antitumor activity ([9]; low doses tested thus far, multiple myeloma patients): preliminary evidence for antitumor activity | TNF-alpha levels in the plasma ([9]; multiple myeloma patients): elevated following the first infusion only | cytokine release ([9]; multiple myeloma patients): appeared to trigger cytokine release | adverse event with the first dose ([9]; weekly i.v. infusion, 4 mg/kg level, multiple myeloma patients): Grade 3 cytokine release syndrome

B2: SGN-14: parent murine monoclonal CD40 antibody (donor), heavy SEQ ID NO: 1, light SEQ ID NO: 12; ATCC PTA-110 (antibody, V domains shown)
VH: EVQLQQSGPDLVKPGASVKISCKASGYSFTGYYIHWVKQSHGKSLEWIGRVIPNNGGTSYNQKFKGKAILTVDKSSSTAYMELRSLTSEDSAVYYCAREGIYWWGHGTTLTVS
VL: DVVVTQTPLSLPVSLGAQASISCRSSQSLVHSNGNTFLHWYLQKPGQSPKLLIYTVSNRFSGVPDRFSGSGSGTDFTLKISRVEAEDLGVYFCSQTTHVPWTFGGGTKLEIQR
modifications: MusMusculus
activity on human peripheral B cells (primary B cell proliferation) [10]: stimulate primary B cell proliferation in a dose dependent manner | anti-neoplastic activity in vivo [11]: anti-neoplastic activity in vivo | tumor growth [5]: negligible | effect on the interaction between CD40 and CD40L [12]: can increase the interaction between CD40 and CD40L | mice alive 90 days after tumor implant [8]: eight of the ten | Binding Data 3 ([13]; affinity binding data, serially diluted antibody on immobilized CD40): 1.16 | binding activity compared with the parent murine antibody ([13]; in words): approaching that of the parent murine antibody; also recorded: more closely approaching that of the parent murine antibody
